Experiments:
[1] = biological target: T1, proMch4 (35S-labeled wild type Mch4)
T1 chain: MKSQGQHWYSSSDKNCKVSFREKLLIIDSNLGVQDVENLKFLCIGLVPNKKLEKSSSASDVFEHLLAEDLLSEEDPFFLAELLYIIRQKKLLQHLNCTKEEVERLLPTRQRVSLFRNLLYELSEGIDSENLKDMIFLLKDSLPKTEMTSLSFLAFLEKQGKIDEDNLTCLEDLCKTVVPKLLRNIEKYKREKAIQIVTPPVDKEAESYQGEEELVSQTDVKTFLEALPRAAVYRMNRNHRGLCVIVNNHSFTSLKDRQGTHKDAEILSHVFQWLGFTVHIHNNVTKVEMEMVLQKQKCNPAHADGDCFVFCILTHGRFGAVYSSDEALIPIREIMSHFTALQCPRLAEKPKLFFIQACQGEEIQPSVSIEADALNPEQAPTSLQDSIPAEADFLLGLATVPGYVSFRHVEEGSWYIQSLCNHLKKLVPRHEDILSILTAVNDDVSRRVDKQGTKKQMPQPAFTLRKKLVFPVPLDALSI

[2] = biological target: T2, DEVD-AMC (not fully specified)
T2 chain: DEVD

[3] = biological target: T3, YVAD-AMC (not fully specified)
T3 chain: YVAD

[4] = biological target: T4, truncated Mch4-M134
T4 chain: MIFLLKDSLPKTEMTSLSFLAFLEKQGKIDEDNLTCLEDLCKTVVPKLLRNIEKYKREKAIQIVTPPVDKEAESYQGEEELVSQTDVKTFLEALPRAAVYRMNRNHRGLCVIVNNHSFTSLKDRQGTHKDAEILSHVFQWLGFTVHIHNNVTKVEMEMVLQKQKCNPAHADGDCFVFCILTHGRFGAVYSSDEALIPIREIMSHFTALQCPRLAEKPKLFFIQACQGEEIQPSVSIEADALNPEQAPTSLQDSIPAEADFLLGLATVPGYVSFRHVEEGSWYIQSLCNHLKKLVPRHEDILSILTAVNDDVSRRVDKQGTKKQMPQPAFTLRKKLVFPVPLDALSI

Row | Protein | cleavage of 35S-labeled proenzyme, SDS-PAGE and autoradiography [1] | cleavage of proenzyme [1] | other results
1 | recombinant CPP32 (protein) SGISLDNSYKMDYPEMGLCIIINNKNFHKSTGMTSRSGTDVDAANLRETFRNLKYEVRNKNDLTREEIVELMRDVSKEDHSKRSSFVCVLLSHGEEGIIFGTNGPVDLKKITNFFRGDRCRSLTGKPKLFIIQACRGTELDCGIETDSGVDDDMACHKIPVEADFLYAYSTAPGYYSWRNSKDGSWFIQSLCAMLKQYADKLEFMHILTRVNRKVATEFESFSFDATFHAKKQIPCIVSMLTKELYFYH | there was no significant cleavage of proMch4 when incubated with recombinant CPP32 or Mch3 enzymes |  | 
2 | ICE (protein) NPAMPTSSGSEGNVKLCSLEEAQRIWKQKSAEIYPIMDKSSRTRLALIICNEEFDSIPRRTGAEVDITGMTMLLQNLGYSVDVKKNLTASDMTTELEAFAHRPEHKTSDSTFLVFMSHGIREGICGKKHSEQVPDILQLNAIFNMLNTKNCPSLKDKPKVIIIQACRGDSPGVVWFKDSVGVSGNLSLPTTEEFEDDAIKKAHIEKDFIAFCSSTPDNVSWRHPTMGSVFIGRLIEHMQEYACSCDVEEIFRKVRFSFEQPDGRAQMPTTERVTLTRCFYLFPGH |  | none of these enzymes were able to efficiently process proMch4 | 
3 | TX (protein) QISPNKKAHPNMEAGPPESGESTDALKLCPHEEFLRLCKERAEEIYPIKERNNRTRLALIICNTEFDHLPPRNGADFDITGMKELLEGLDYSVDVEENLTARDMESALRAFATRPEHKSSDSTFLVLMSHGILEGICGTVHDEKKPDVLLYDTIFQIFNNRNCLSLKDKPKVIIVQACRGANRGELWVRDSPASLEVASSQSSENLEEDAVYKTHVEKDFIAFCSSTPHNVSWRDSTMGSIFITQLITCFQKYSWCCHLEEVFRKVQQSFETPRAKAQMPTIERLSMTRYFYLFPGN |  | none of these enzymes were able to efficiently process proMch4 | 
4 | Mch2 (protein) AFYKREMFDPAEKYKMDHRRRGIALIFNHERFFWHLTLPERRGTCADRDNLTRRFSDLGFEVKCFNDLKAEELLLKIHEVSTVSHADADCFVCVFLSHGEGNHIYAYDAKIEIQTLTGLFKGDKCHSLVGKPKIFIIQACRGNQHDVPVIPLDVVDNQTEKLDTNITEVDAASVYTLPAGADFLMCYSVAEGYYSHRETVNGSWYIQDLCEMLGKYGSSLEFTELLTLVNRKVSQRRVDFCKDPSAIGKKQVPCFASMLTKKLHFFPKSN |  | none of these enzymes were able to efficiently process proMch4 | 
5 | bacterially expressed recombinant Mch4 (GST-Mch4 fusion protein) (protein) IQIVTPPVDKEAESYQGEEELVSQTDVKTFLEALPRAAVYRMNRNHRGLCVIVNNHSFTSLKDRQGTHKDAEILSHVFQWLGFTVHIHNNVTKVEMEMVLQKQKCNPAHADGDCFVFCILTHGRFGAVYSSDEALIPIREIMSHFTALQCPRLAEKPKLFFIQACQGEEIQPSVSIEADALNPEQAPTSLQDSIPAEADFLLGLATVPGYVSFRHVEEGSWYIQSLCNHLKKLVPRHEDILSILTAVNDDVSRRVDKQGTKKQMPQPAFTLRKKLVFPVPLDALSI |  |  | Km (DEVD-AMC) [2]: 130 µM; Vmax/Km [2]: Vmax/KmMch4=18; Km (YVAD-AMC) [3]: 150 µM; cleavage of 35S-labeled proenzyme, SDS-PAGE and autoradiography [4]: Although Mch4 was able to cleave proMch4, its activity towards its proenzyme was significantly lower than that towards proCPP32 and proMch3 (FIG. 5B, lane 7)
6 | recombinant Mch3 (protein) AKPDRSSFVPSLFSKKKKNVTMRSIKTTRDRVPTYQYNMNFEKLGKCIIINNKNFDKVTGMGVRNGTDKDAEALFKCFRSLGFDVIVYNDCSCAKMQDLLKKASEEDHTNAACFACILLSHGEENVIYGKDGVTPIKDLTAHFRGDRCKTLLEKPKLFFIQACRGTELDDGIQADSGPINDTDANPRYKIPVEADFLFAYSTVPGYYSWRSPGRGSWFVQALCSILEEHGKDLEIMQILTRVNDRVARHFESQSDDPHFHEKKQIPCVVSMLTKELYFSQ | there was no significant cleavage of proMch4 when incubated with recombinant CPP32 or Mch3 enzymes |  | 

From patent US6897296
